Results reported in patent US9562073B2, “Matriptase and u-plasminogen activator substrates and other cleavable moieties and methods of use thereof” (CytomX Therapeutics, Inc., priority 2014, dated 2017).

Biological target: T1, Human matriptase-1 (Homo sapiens, UniProt Q9Y5Y6)
T1 construct: purchased Research & Diagnostics Systems, Inc
T1 sequence (Q9Y5Y6 1-855): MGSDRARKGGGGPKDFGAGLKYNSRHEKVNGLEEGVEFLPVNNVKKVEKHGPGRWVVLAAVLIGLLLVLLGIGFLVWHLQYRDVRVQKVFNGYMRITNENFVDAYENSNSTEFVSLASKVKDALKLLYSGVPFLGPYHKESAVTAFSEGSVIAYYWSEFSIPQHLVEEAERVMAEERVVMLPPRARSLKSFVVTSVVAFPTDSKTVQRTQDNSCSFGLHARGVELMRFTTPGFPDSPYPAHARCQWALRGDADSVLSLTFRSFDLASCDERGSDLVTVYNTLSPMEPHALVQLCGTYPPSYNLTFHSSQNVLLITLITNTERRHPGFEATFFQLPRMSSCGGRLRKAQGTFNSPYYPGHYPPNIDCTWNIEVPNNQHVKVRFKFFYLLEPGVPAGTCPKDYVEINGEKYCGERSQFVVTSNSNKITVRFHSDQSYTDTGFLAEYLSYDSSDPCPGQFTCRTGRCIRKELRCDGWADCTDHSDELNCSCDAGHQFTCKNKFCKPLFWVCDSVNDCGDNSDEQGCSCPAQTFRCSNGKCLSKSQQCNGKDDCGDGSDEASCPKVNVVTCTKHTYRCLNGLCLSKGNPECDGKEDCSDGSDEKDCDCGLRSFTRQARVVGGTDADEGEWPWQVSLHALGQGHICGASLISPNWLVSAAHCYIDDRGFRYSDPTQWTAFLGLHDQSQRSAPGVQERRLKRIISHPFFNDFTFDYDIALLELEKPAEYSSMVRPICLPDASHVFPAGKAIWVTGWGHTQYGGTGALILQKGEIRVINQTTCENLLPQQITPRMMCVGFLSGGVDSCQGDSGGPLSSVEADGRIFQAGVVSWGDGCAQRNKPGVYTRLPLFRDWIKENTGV
Assay: Substrate cleavage by matriptase-1 on cell-displayed platform scaffold (eCLiPS3.0), flow cytometry
Type: biochemical
Conditions: substrate displayed in platform scaffold; TBST
Method: Reagents and Strains: Streptavidin-conjugated phycoerythrin (SA-PE) (Invitrogen, Life Technologies) was used without modifications. Human matriptase-1 (Research & Diagnostics Systems, Inc.) was used without modifications. Human plasmin (Haematologic Technologies Inc.) was used without modifications. Human tPA (Molecular Innovations) was used without modifications. YPet fused to the SH3 domain of Mona (monocytic adaptor) was used without modifications. TBST, 50 mM Tris-HCl, 150 mM NaCl, 0.05% Tween20, pH 7.4, was used. […]
Substrate Cleavage and Scaffold Stability Analysis: For screening and clone analysis, overnight cultures were subcultured by dilution into fresh medium (1:50) and grown for 1.5-2 hours. […] After incubation on ice (30 min), cells were washed with PBS and analyzed using a FACSAria™ cell sorter.
For protease cleavage assays, cultures were induced for 1 hour. […] Background hydrolysis of the regions flanking the substrate site (using platform eCLiPS3.0-NSUB_SP described in PCT patent application PCT/US13/54378, filed Aug. 9, 2013 and published as WO 2014/026136 on Feb. 13, 2014), was measured under each reaction condition to ensure that hydrolysis occurred in the designated substrate region. […]
Specifically, for each sample, conversion was determined by flow cytometry analyses using the relationship […]
[formula] allowing substrate conversion to be expressed as […]

- cleavage by matriptase-1: cleavage
Sequence: VAGRSMRP (Cleavable moiety)
